Source: PMC9599917, “Reshaping the Binding Pocket of the Neurotransmitter:Solute Symporter (NSS) Family Transporter SLC6A14 (ATB^0,+) Selectively Reduces Access for Cationic Amino Acids and Derivatives” (Biomolecules, 2022)
Changes are numbered by the printed parent chain. Names may count otherwise.

B1: SLC6A14 (ATB0,+) (Homo sapiens) (protein)
chain: MDKLKCPSFFKCREKEKVSASSENFHVGENDENQDRGNWSKKSDYLLSMIGYAVGLGNVWRFPYLTYSNGGGAFLIPYAIMLALAGLPLFFLECSLGQFASLGPVSVWRILPLFQGVGITMVLISIFVTIYYNVIIAYSLYYMFASFQSELPWKNCSSWSDKNCSRSPIVTHCNVSTVNKGIQEIIQMNKSWVDINNFTCINGSEIYQPGQLPSEQYWNKVALQRSSGMNETGVIVWYLALCLLLAWLIVGAALFKGIKSSGKVVYFTALFPYVVLLILLVRGATLEGASKGISYYIGAQSNFTKLKEAEVWKDAATQIFYSLSVAWGGLVALSSYNKFKNNCFSDAIVVCLTNCLTSVFAGFAIFSILGHMAHISGKEVSQVVKSGFDLAFIAYPEALAQLPGGPFWSILFFFMLLTLGLDSQFASIETITTTIQDLFPKVMKKMRVPITLGCCLVLFLLGLVCVTQAGIYWVHLIDHFCAGWGILIAAILELVGIIWIYGGNRFIEDTEMMIGAKRWIFWLWWRACWFVITPILLIAIFIWSLVQFHRPNYGAIPYPDWGVALGWCMIVFCIIWIPIMAIIKIIQAKGNIFQRLISCCRPASNWGPYLEQHRGERYKDMVDPKKEADHEIPTVSGSRKPE
notes: human SLC6A14 expressed in Xenopus laevis oocytes
B2: SLC6A14 (ATB0,+) (Homo sapiens; V128I) (protein)
chain: B1 chain with V128I
notes: human SLC6A14-V128I expressed in Xenopus laevis oocytes
B3: SLC6A14 (ATB0,+) (Homo sapiens; V128F) (protein)
chain: B1 chain with V128F
notes: human SLC6A14-V128F expressed in Xenopus laevis oocytes

Key:
Format in all cases: cell-based, Homo sapiens
[1] = substrate: N=C(N)NCCC[C@H](N)C(=O)O; assay: two-electrode voltage clamp in oocytes (Km); competition with [3H]serine uptake; conditions: Na+ and Cl- substrate binding pocket, competes with serine; lost in V128F
[2] = substrate: N[C@@H](CO)C(=O)O; assay: two-electrode voltage clamp in oocytes (Km); radiolabelled uptake; conditions: Na+ and Cl-
[3] = substrate: N[C@@H](CO)C(=O)O; assay: as above; conditions: Na+ and Cl-; remark: listed apart in the source
Text: two-electrode voltage clamp in oocytes (Km); radiolabelled uptake on SLC6A14 (ATB0,+) | In SLC6A14-V128I, the affinity for serine increased by five-fold

[4] = substrate: N=C(N)NCCC[C@H](N)C(=O)O; assay: two-electrode voltage clamp in oocytes (Km); conditions: Na+ and Cl-

Protein | Km [1] [µM] | Km [2] [µM] | Km [3] [µM] | Km [4] [µM]
B1 | 91 ± 11 | 106 ± 5 |  | 
B2 |  |  | 20 ± 3 | 60 ± 8
B3 |  | 142 ± 11 |  | 
